The values below come from article PMC4573856 (Genes & Development, 2015).

Substitutions are numbered along the chain they refer to. Read-outs that look alike come from different tables or passages of the source.

Experiment [1] concerns the target T1, Dm eIF4E (residues 69-248) used for ITC (Drosophila melanogaster, UniProt P48598-2 69-248).
T1 sequence (looked up): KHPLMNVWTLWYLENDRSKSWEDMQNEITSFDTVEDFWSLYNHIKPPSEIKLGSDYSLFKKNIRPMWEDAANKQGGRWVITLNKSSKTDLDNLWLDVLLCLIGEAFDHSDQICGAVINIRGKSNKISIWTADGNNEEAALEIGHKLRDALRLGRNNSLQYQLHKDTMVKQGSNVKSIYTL
Put plainly: ITC. (In general: In ITC the heat of successive injections is recorded.)

The target of experiment [2] is T2, His6-tagged Dm eIF4E (residues 69-248) (Drosophila melanogaster, UniProt P48598-2 69-248).
T2 sequence (looked up): T1 sequence (looked up)
Put plainly: pull-down.

The target in experiment [3] is T2, His6-tagged Dm eIF4E (residues 69-248). Put plainly: pull-down. This is another data set of the same source.

B1: GB1-stabilized Dm Mxt peptide C + NC (residues 577-620) (domain or fragment, Drosophila melanogaster, UniProt Q9VR35 577-620, looked up)
chain: SRVSYDIEHLLYYSMSPHSWTLPTDWQKMQETAPSILRNKDLQD
The Kd is the concentration at which binding is half-saturated. Lower therefore signals higher affinity. B1 had a Kd in experiment [1] of 5 nM.

B2: GB1-tagged Dm Mxt C + NC IS-RR mutant peptide (domain or fragment, Drosophila melanogaster, UniProt Q9VR35 577-620, looked up)
chain: B1 chain with I7R, S14R
Consider B2, for which, in experiment [2], the binding result is “binds”.

B3: MBP-tagged Dm Mxt fragment 577-620 IS-RR mutant C-terminally fused to GB1 (domain or fragment, Drosophila melanogaster, UniProt Q9VR35 577-620, looked up)
chain: B1 chain with I7R, S14R
Consider B3, for which, in experiment [3], the binding result is “binds”.

B4: GB1-stabilized Dm Mxt peptide (residues 577-640) (domain or fragment, Drosophila melanogaster, UniProt Q9VR35 577-640, looked up)
chain: SRVSYDIEHLLYYSMSPHSWTLPTDWQKMQETAPSILRNKDLQDESQRFDGDKYLASIKTAAKR
modifications: also: 15N-labelled, GB1-stabilized (GB1 fusion)
On to B4, for which the affinity in experiment [1], expressed as Kd, was 0.5 nM.

B5: Dm eIF4G (residues 578-650) C-terminally fused to GB1 (domain or fragment, Drosophila melanogaster, UniProt O61380 578-650, looked up)
chain: PETTLNDKQDSTDLKVKVSAKISSIINYNEGQWSPNNPSGKKQYDREQLLQLREVKASRIQPEVKNVSILPQP
In the case of B5, in experiment [3], the binding result was “binds”.
